Tests used:
[1] = molecular target: mono-ubiquitin (untagged, native N- and C-termini) (UniProt P0CG48 1-76); test: crystal structure
linear di-ubiquitin = linear di-ubiquitin (UniProt P0CG48 1-76; P0CG48 1-76); test: ITC

binding result [1]: binds
binding result (linear di-ubiquitin): binds
B1: HOIP-RBR (residues 696–1072) (domain or fragment, human, UniProt Q96EP0 696-1072, looked up)
chain: AQECAVCGWALPHNRMQALTSCECTICPDCFRQHFTIALKEKHITDMVCPACGRPDLTDDTQLLSYFSTLDIQLRESLEPDAYALFHKKLTEGVLMRDPKFLWCAQCSFGFIYEREQLEATCPQCHQTFCVRCKRQWEEQHRGRSCEDFQNWKRMNDPEYQAQGLAMYLQENGIDCPKCKFSYALARGGCMHFHCTQCRHQFCSGCYNAFYAKNKCPEPNCRVKKSLHGHHPRDCLFYLRDWTALRLQKLLQDNNVMFNTEPPAGARAVPGGGCRVIEQKEVPNGLRDEACGKETPAGYAGLCQAHYKEYLVSLINAHSLDPATLYEVEELETATERYLHVRPQPLAGEDPPAYQARLLQKLTEEVPLGQSIPRRRK
